The values below come from publication PMC7536116.

Common to all, as to test: GFET
Data set [1] deals with T1, TNF-alpha (human, UniProt P01375 77-233).
The target of data set [2] is T1, TNF-alpha. This is another data set of the same source.
For data set [3], the target named is T1, TNF-alpha. The source holds these as a separate data set.

Like-named read-outs stand apart in the source and are kept apart here.

Usually Kd stands for the free concentration of one partner at which half of the binding sites on the other are occupied at equilibrium, for simple one-to-one binding. A lower Kd goes with tighter binding.

T1 sequence (P01375 77-233): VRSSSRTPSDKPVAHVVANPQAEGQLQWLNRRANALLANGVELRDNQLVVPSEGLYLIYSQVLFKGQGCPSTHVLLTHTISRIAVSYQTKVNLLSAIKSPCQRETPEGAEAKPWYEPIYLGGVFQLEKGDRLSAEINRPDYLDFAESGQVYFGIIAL

Take TGGTGGATGGCGCAGTCGGCGACAA (ssDNA, 5'-NH2 (amine, coupled to PASE on graphene)) [VR11 aptamer]: the Kd in data set [1] was 27.4 nM; in data set [2], 28.4 nM; in data set [3], 28.4 nM.
